Patent publication US20050065327A1

Legend:
[1] = biological target: human IL-13 (recombinant, bacterially derived, Peprotech) (human) (UniProt P35225); test: cell-based or functional assay
[2] = biological target: native (naturally occurring) human IL-13 released from HDLM-2 cells (human) (UniProt P35225); test: cell-based or functional assay
native (naturally occurring) human IL-13 released from HDLM-2 cells (human), sequence (P35225 other isoform, or with tags, fused parts or gaps): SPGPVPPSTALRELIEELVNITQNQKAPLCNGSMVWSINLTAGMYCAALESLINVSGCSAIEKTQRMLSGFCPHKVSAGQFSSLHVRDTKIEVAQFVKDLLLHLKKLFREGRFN

human IL-13 (recombinant, bacterially derived, Peprotech) (human), sequence (P35225 other isoform, or with tags, fused parts or gaps): as above

Substance	IC50, TF-1 cell proliferation assay [1] [nM]	IC50, eotaxin release from NHLF [1] [nM]	IC50, HDLM-2 cell proliferation assay [2] [nM]
B-B13 (commercial anti-human IL-13 antibody, mouse IgG1, Euroclone)	1.02	0.219	16.7
JES10-5A2 (commercial anti-human IL-13 antibody, rat IgG1, Biosource)	0.471	0.623	10.7
